According to US20230192842A1 (published 2023):

How the values were obtained:
[1] = biological target: T1, human CLDN3 E153A mutant on RKO KO cells (human, UniProt O15551 1-220); assay: flow cytometry, % 906-mAb-PE positive of live cells
T1 construct: Single-point alanine mutant, monoclonal RKO KO line with GFP
T1 chain: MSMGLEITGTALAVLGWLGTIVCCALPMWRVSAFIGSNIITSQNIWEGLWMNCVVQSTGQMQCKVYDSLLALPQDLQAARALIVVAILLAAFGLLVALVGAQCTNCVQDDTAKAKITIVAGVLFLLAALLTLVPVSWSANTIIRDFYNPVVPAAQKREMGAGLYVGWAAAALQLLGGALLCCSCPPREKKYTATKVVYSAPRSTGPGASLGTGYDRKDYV
Experimental: (§1) Flow cytometry. RKO KO target cells were seeded for flow cytometry as described in previous sections. Wells were topped up with flow buffer (PBS+2% FBS+2 mM EDTA+0.05% sodium azide) and plates were centrifuged at 300×g for 5 minutes. Supernatant was flicked off, cells were resuspended in 150 uL flow buffer. Plate was centrifuged at 300×g for 5 minutes. Supernatant was flicked off and cells were resuspended in 50 uL IgG block at 1:100 for 10 minutes at RT. Following incubation, plate was washed twice as above. Cells were resuspended in 50 uL of diluted antibodies (all a 1 in 300 dilution) in flow buffer, or flow buffer alone (unstained control). Cells were incubated for 30 minutes at RT. After incubation, plates were washed twice with 150 uL flow buffer. […]
(§2) Data Analysis: Flow Cytometry. Flow cytometry data was analysed using FLOWJO and further analysed in Microsoft excel and RStudio. […] Statistics for % PE-positive cells (as % of live cells) and Median Fluorescence Intensity (MFI) were calculated in FLOWJO and exported to Microsoft Excel for further analysis. […] Briefly, MFI was log 10 transformed and a mixed model was used with a fixed effect for cell line and a random effect for Plate, whilst % Parent was analysed on a linear scale in a mixed model with a fixed effect for cell line and a random effect for plate.

[2] = biological target: T2, human CLDN3 N38A mutant on RKO KO cells (human, UniProt O15551 1-220); assay: as above
T2 construct: Single-point alanine mutant, monoclonal RKO KO line with GFP
T2 chain: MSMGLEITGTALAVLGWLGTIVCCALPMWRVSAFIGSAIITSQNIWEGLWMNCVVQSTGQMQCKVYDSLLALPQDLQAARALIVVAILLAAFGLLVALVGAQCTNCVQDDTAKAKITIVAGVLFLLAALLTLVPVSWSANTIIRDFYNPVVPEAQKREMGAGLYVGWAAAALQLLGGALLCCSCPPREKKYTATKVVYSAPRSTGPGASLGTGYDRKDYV
Experimental: as §1, §2

[3] = biological target: T2, human CLDN3 N38A mutant on RKO KO cells; assay: flow cytometry, 906-mAb-PE on RKO KO cells expressing the mutant
Experimental: Flow cytometry. RKO KO target cells were seeded for flow cytometry as described in previous sections. Wells were topped up with flow buffer (PBS+2% FBS+2 mM EDTA+0.05% sodium azide) and plates were centrifuged at 300×g for 5 minutes. Supernatant was flicked off, cells were resuspended in 150 uL flow buffer. Plate was centrifuged at 300×g for 5 minutes. Supernatant was flicked off and cells were resuspended in 50 uL IgG block at 1:100 for 10 minutes at RT. Following incubation, plate was washed twice as above. Cells were resuspended in 50 uL of diluted antibodies (all a 1 in 300 dilution) in flow buffer, or flow buffer alone (unstained control). Cells were incubated for 30 minutes at RT. After incubation, plates were washed twice with 150 uL flow buffer. Cells were then resuspended in 100 uL flow buffer containing DAPI at a 1:200 concentration as a live/dead stain. Cells were run immediately on the CYTOFLEXS. Cells were acquired on fast flow rate, with a stopping condition of 10,000 live cells (based on Total>Singlets>Live).
Cell lines for analysis included RKO KO, a CLDN3 knockout (included as a negative control), RKO KO CLDN3 mutant cells (with various single-amino acid CLDN3 mutations) and RKO KO CLDN3 WT cells (positive control). RKO KO CLDN3 mutant cell lines were selected and generated as outlined in previous sections.

[4] = biological target: T1, human CLDN3 E153A mutant on RKO KO cells; assay: as above
Experimental: as §1, §2

[5] = biological target: T2, human CLDN3 N38A mutant on RKO KO cells; assay: as above
Experimental: as §1, §2

B1: 906-mAb (anti-CLDN3 906-mAb, monoclonal antibody version of the scFv of 906-009_LNGFR) (antibody, V domains shown)
VH: QVQLVQSGAEVKKPGSSVKVSCKASGYTFTNYWVHWVRQAPGQGLEWMGRIEPNSSGSQYNEKFKNRVTITADKSTSTAYMELSSLRSEDTAVYYCARGVMVPLDYWGQGTLVTVSS
VL: DIQMTQSPSSLSASVGDRVTITCKASQDINRYIAWYQQKPGKAPKLLIHYTSTLQPGVPSRFSGSGSGTDFTLTISSLQPEDFATYYCLQYETLYSFGQGTKLEIK
Q: How did the “Change in % Parent (906-mAb-PE positive cells) vs CLDN3 WT” value [1] turn out when B1 was run?
A: -94.5%

Q: What about the “Change in % Parent (906-mAb-PE positive cells) vs CLDN3 WT” value [2] of the same binder?
A: -99.2%

Q: Does B1 bind [3]?
A: no binding

Q: What about the “fold change MFI vs CLDN3 WT” value [4] of the same binder?
A: 0.01 fold vs CLDN3 WT

Q: What about the “fold change MFI vs CLDN3 WT” value [5] of the same binder?
A: 0.01 fold vs CLDN3 WT
